Where a chain is given by its changes, count along the chain named.
B1: 8E5: anti-CDCP1 murine monoclonal antibody (hybridoma); VH SEQ ID NO: 258, VL SEQ ID NO: 308 (antibody, V domains shown)
VH: EVQLKESGPELKKPGETVKISCKASGYTLTDFSMHWLKQAPGKGLKWMGWINTETGAPTYADDFKGRFALSLDTSANTAYLQINNLKNEDTATYFCSRGRDYDPHFDYWGQGTTVTVSS
VL: EIVLTQSPATLSVTPGDRVSLSCRASQSISDFLHWYQQRSHESPRLLIKYASQSISGIPSRFGGSGSGSDFTLNINTVEPEDVGMYYCQSAHSFPYTFGGGTKLEIK
modifications: 8E5 heavy chain variable region; 8E5 light chain variable region
B2: 3C11: anti-CDCP1 murine monoclonal antibody (hybridoma); VH SEQ ID NO: 240, VL SEQ ID NO: 291 (antibody, V domains shown)
VH: EVQLQQSGTVLARPGASVKMSCKASGYNFISYWLHWIKQRPGQGLEWIGGIYPGNTDTTYNQKFKGKAKVTAVTSATTAYMELSSLTNEDSAVYYCIRYDYDRGMDYWGQGTTVTVSS
VL: DIQMTQSPSSFSVSLGDRVTITCRASEDIYYRLAWYQQKPGNAPRLLISGATALETGVPSRFSGSGSGKDYTLSITSLQTEDVATYYCQHYWNIPWTFGGGTKLEIK
modifications: 3C11 heavy chain variable region; 3C11 light chain variable region
B3: 3B12H5: anti-CDCP1 murine monoclonal antibody (hybridoma); VH SEQ ID NO: 239, VL SEQ ID NO: 290 (antibody, V domains shown)
VH: EVQLQQSGTVLARPGASVKMSCKASGYSFTIYWVHWVKQRPGQGLEWIGAVYPGNDDTSYNQNFKGKAKLTAVTSATTAYMELSSLTIDDSAVYYCTRHTYDEVFDYWGQGTTVTVSS
VL: B2 VL with Q3V, F11L, R24K, A51G, A53N, T56A, V58I, T85I, I94T
modifications: 3B12H9/3B12H5 heavy chain variable region; 3B12H5 light chain variable region
B4: 10D2: anti-CDCP1 murine monoclonal antibody (hybridoma); VH SEQ ID NO: 260, VL SEQ ID NO: 310 (antibody, V domains shown)
VH: EVQLQQSGPELKKPGETVKISCKASGYTFTDYSMHWVKQAPGKGLKWMGWINTETGQPTYADDFKGRFAFSLETSASSAYLQINNLKNEDTATYFCTRTFYYDYVGDYWGQGTTVTVSS
VL: DIVMTQSHKFMSTSVGDRVSITCKASQDVSTAVAWYRQKPGQSPKLLIYWASTRHTGVPDRLTGSGSGTDFALTINSVQAEDLALYYCQQHSSTPYTFGGGTKLEIK
modifications: 10D2 heavy chain variable region; 10D2 light chain variable region
B5: G10F6: anti-CDCP1 murine monoclonal antibody (hybridoma); VH SEQ ID NO: 256, VL SEQ ID NO: 306 (antibody, V domains shown)
VH: EVKLVESGPGILQPSQTLSLTCSFSGFSLSTSGMGVSWVRQPSGKGLEWLAHIYWDDDKRYNPSLKGRLTISKDTPRNQVFLEITSVDTTDTATYYCARVPGNWDEDAMDYWGQGTTVTVSS
VL: DIQMTQSPLSLPVSLGDQASISCRSSQNIVHTNGNTYLEWYLQKVGQSPKLLIYKVSNRFSGVPDRFSGSGSGTDFTLKISRVEAEDLGVYYCFQGSHVPYTFGGGTKLEIK
modifications: G10F6 heavy chain variable region; G10F6 light chain variable region
B6: 6A7: anti-CDCP1 murine monoclonal antibody (hybridoma); VH SEQ ID NO: 243, VL SEQ ID NO: 294 (antibody, V domains shown)
VH: EVQLKESGAELVRPGASVKVSCKASGYSFTSYWMNWVKQRPGQGLEWIGMIHPSDSETKLNQKFRDRASLTVDKSSSTAYMQLSSPTSEDSAVYYCTINYESFYYAMDYWGQGTTVTVSS
VL: DIVMTQSPASLAVSLGQRATISCRASKSVSTSGYSYMHWYQQKPGQPPKLLLYLASNLESGVPARFSGSGSGADFTLNIHPVEEEDAATYYCLHSRELPYTFGGGTKLEIK
modifications: 6A7 heavy chain variable region; 6A7 light chain variable region

Experiments:
Format in all cases: cell-based, human
MDA-MB-231 cells [1] = test: Transwell tumor cell migration experiment; settings: MDA-MB-231, antibody 10 μg/ml
Experimental: In order to determine the effect of antibodies on tumor cell metastasis, the migration ability of tumor cells was examined in this study according to a transwell experiment. The specific cell migration experiment involved culturing and collecting MDA-MB-231 cells, washing them once with PBS, adjusting the density to 8×10^5 cells/mL, adding the antibody to be tested to the cells such that the working concentration thereof was 10 μg/ml, co-incubating for 30 mins, adding a cell suspension to the upper chamber of the transwell chamber, placing the transwell chamber in the incubator for 12-48 h, then removing the chamber (transwell chamber, to examine cell migration ability), immobilizing the cells, staining the cells with crystal violet for 15 mins, washing, air drying, mounting, and taking photos of 4-5 fields of view under a microscope, and counting the number or area of the stained cells using imageJ analysis software, the number or area was used as the basis for determining tumor cell migration.

MDA-MB-231 cells [2] = test: Endocytosis capacity of murine monoclonal antibody (flow cytometry internalization); settings: antibody 1.5 μg/mL; for Internalization MDA-MB-231 (%) 0.5 h: MDA-MB-231, 0.5 h at 37° C.; for Internalization MDA-MB-231 (%) 1 h: MDA-MB-231, 1 h at 37° C.; for Internalization MDA-MB-231 (%) 2 h: MDA-MB-231, 2 h at 37° C.
How it was run: (§1)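 MDA-MB-231 and PC3 cells (EDTA-detached, Fc-blocked) bound with 1.5 μg/mL test antibody at 4° C for 30 min, washed, then held at 37° C for 0.5, 1 or 2 h. Surface antibody detected with PE anti-human IgG Fc by flow cytometry; internalization (%) = (Geo-MFI 0 h − Geo-MFI at time point)/Geo-MFI 0 h × 100%.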

PC3 cells = test: as above; settings: antibody 1.5 μg/mL; for Internalization PC3 (%) 0.5 h: PC3, 0.5 h at 37° C.; for Internalization PC3 (%) 1 h: PC3, 1 h at 37° C.; for Internalization PC3 (%) 2 h: PC3, 2 h at 37° C.
How it was run: as §1

MDA-MB-231 cells [3] = test: Effect of antibody on tumor cell proliferation (CellTiter-Glo); settings: MDA-MB-231, 96 h
Experimental: (§2) 3000 cells (breast cancer MDA-MB-231, prostate cancer PC-3 cells)/well were plated onto 96-well plates overnight, an antibody at a final concentration of 500 nM to 0.00128 nM (100 nM to 0.000256 nM, 100, 20, 4, 0.8, 0.16, 0.032, 0.0064, 0.00128, 0.000256 nM, respectively) was added; after a 5-fold dilution across 9 concentration points and culturing in a CO2 incubator at 37° C. for 96 h, half of the medium (100 μL) was discarded, and 100 μL of CellTiter-Glo Luminescent Cell Viability assay reagent (Promega, cat #G7570) was added to detect signal values on a BMG microplate reader. The inhibition of antibody on tumor cell growth was calculated by graphpad fitting based on the signal value and antibody concentration.

PC-3 cells = test: as above; settings: PC-3, 96 h
Experimental: as §2

| Molecule | effect on tumor cell migration (transwell, FIG. 4c) (MDA-MB-231 cells [1]) | Internalization MDA-MB-231 (%) 0.5 h (MDA-MB-231 cells [2]) | Internalization MDA-MB-231 (%) 1 h (MDA-MB-231 cells [2]) | Internalization MDA-MB-231 (%) 2 h (MDA-MB-231 cells [2]) | Internalization PC3 (%) 0.5 h (PC3 cells) | Internalization PC3 (%) 1 h (PC3 cells) | Internalization PC3 (%) 2 h (PC3 cells) | effect on tumor cell growth (FIG. 4a) (MDA-MB-231 cells [3]) | effect on tumor cell growth (FIG. 4b) (PC-3 cells) |
| --- | --- | --- | --- | --- | --- | --- | --- | --- | --- |
| B1 | better capability to inhibit tumor cell migration than SEQ135 | 24.32% | 38.20% | 53.26% | 6.54% | 17.17% | 42.94% | did not exhibit an effect on tumor cell growth | did not exhibit an effect on tumor cell growth |
| B2 | better capability to inhibit tumor cell migration than SEQ135 | 28.50% | 36.16% | 52.23% | 28.45% | 39.70% | 59.90% | did not exhibit an effect on tumor cell growth | did not exhibit an effect on tumor cell growth |
| B3 | better capability to inhibit tumor cell migration than SEQ135 | 20.76% | 29.93% | 49.69% | 16.54% | 30.28% | 50.50% | did not exhibit an effect on tumor cell growth | did not exhibit an effect on tumor cell growth |
| B4 | better capability to inhibit tumor cell migration than SEQ135 | 46.38% | 57.85% | 70.77% | 21.48% | 41.99% | 64.19% | did not exhibit an effect on tumor cell growth | did not exhibit an effect on tumor cell growth |
| B5 | better capability to inhibit tumor cell migration than SEQ135 | 34.49% | 50.70% | 67.02% | 3.36% | 20.68% | 54.36% | did not exhibit an effect on tumor cell growth | did not exhibit an effect on tumor cell growth |
| B6 | better capability to inhibit tumor cell migration than SEQ135 | 28.97% | 43.77% | 58.78% | 22.99% | 35.14% | 49.86% | did not exhibit an effect on tumor cell growth | did not exhibit an effect on tumor cell growth |

Reference: patent US20260250410A1, “ANTIBODY AND USE THEREOF” (SICHUAN HUIYU PHARMACEUTICAL CO., LTD., priority 2022, published 2026)
